Source: publication PMC2859985 (Virus research, 2010)

Legend:
[1] = molecular target: importin alpha 5, His-tagged (human, UniProt P52294 1-538); assay: pull-down
[2] = molecular target: T1, importin alpha 3, His-tagged (human, UniProt O00629 1-521); assay: pull-down
T1 sequence (looked up): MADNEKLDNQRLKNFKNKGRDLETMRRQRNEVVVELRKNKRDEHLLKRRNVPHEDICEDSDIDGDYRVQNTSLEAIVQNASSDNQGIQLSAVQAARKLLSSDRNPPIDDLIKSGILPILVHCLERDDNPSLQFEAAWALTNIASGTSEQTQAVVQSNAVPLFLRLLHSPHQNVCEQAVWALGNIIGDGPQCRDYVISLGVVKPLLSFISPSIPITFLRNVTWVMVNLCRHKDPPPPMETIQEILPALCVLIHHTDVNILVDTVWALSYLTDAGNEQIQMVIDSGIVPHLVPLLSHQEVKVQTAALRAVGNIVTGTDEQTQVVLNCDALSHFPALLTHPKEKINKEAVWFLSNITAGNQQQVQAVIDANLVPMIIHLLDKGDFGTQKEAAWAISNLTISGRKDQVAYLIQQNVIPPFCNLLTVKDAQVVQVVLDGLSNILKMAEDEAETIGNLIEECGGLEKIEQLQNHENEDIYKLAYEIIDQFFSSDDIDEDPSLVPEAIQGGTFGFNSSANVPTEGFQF

Sequence of importin alpha 5, His-tagged (P52294 whole entry): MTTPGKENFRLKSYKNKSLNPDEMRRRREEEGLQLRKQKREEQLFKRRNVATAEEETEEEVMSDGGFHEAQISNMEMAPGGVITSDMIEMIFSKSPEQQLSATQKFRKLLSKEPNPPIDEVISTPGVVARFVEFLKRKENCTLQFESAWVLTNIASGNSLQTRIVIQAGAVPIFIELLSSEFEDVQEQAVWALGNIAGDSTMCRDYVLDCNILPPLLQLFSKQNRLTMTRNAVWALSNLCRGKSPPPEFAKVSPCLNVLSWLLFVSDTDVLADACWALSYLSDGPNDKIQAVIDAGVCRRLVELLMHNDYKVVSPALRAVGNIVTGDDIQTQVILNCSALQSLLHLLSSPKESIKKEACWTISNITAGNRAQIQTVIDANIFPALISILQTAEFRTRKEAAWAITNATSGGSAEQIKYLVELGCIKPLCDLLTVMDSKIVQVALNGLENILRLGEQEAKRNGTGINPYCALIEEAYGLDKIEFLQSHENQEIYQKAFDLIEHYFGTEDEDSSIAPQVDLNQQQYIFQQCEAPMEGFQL

B1: GST-HPV16 E2 (natural protein)
chain: METLCQRLNVCQDKILTHYENDSTDLRDHIDYWKHMRLECAIYYKAREMGFKHINHQVVPTLAVSKNKALQAIELQLTLETIYNSQYSNEKWTLQDVSLEVYLTAPTGCIKKHGYTVEVQFDGDICNTMHYTNWTHIYICEEASVTVVEGQVDYYGLYYVHEGIRTYFVQFKDDAEKYSKNKVWEVHAGGQVILCPTSVFSSNEVSSPEIIRQHLANHPAATHTKAVALGTEETQTTIQRPRSEPDTGNPCHTTKLLHRDSVDSAPILTAFNSSHKGRINCNSNTTPIVHLKGDANTLKCLRYRFKKHCTLYTAVSSTWHWTGHNVKHKSAIVTLTYDSEWQRDQFLSQVKIPKTITVSTGFMSI
Does B1 bind [1]?
Result: binds

B2: GST-HPV11 E2 (natural protein)
chain: MEAIAKRLDACQDQLLELYEENSIDIHKHIMHWKCIRLESVLLHKAKQMGLSHIGLQVVPPLTVSETKGHNAIEMQMHLESLAKTQYGVEPWTLQDTSYEMWLTPPKRCFKKQGNTVEVKFDGCEDNVMEYVVWTHIYLQDNDSWVKVTSSVDAKGIYYTCGQFKTYYVNFNKEAQKYGSTNHWEVCYGSTVICSPASVSSTVREVSIAEPTTYTPAQTTAPTVSACTTEDGVSAPPRKRARGPSTNNTLCVANIRSVDSTINNIVTDNYNKHQRRNNCHSAATPIVQLQGDSNCLKCFRYRLNDKYKHLFELASSTWHWASPEAPHKNAIVTLTYSSEEQRQQFLNSVKIPPTIRHKVGFMSLHLL
Does B2 bind [1]?
Result: binds

Does B2 bind [2]?
Result: binds
